The labels stand for the following.
B1: Twister Ribozyme (parent)
chain: AACACUGCCAAUGCCGGUCCCAAGCCCGGAUAAAAGUGGAGGGGGCGG

This data set covers variants of B1. As to the kind of experiment: self-cleavage, relative activity (ratio to wild type); higher = more cleavage; co-transcriptional.
Turning to C8U G45C, the self-cleavage amounted to 0.141.

For C8U G45A, the self-cleavage turned out to be 0.492.

For C8U G28U, the self-cleavage was determined as 0.467.

As to C8G C9A, the self-cleavage was 0.0971.

As to C9U U37A, the self-cleavage was determined as 0.26.

Consider C9U U37G, for which the self-cleavage came out at 0.419.

In the case of C9U U37C, the self-cleavage was 0.122.

Turning to C9A A23C, the self-cleavage came out at 0.0979.

For C9A A23U, the self-cleavage came to 0.066.

In the case of C8U A11C, the self-cleavage worked out at 0.89.

On to C8U A11U, for which the self-cleavage is 0.973.

Consider C9U U12C, for which the self-cleavage came out at 0.501.

For C9U C15G, the self-cleavage is 0.0427.

On to C9G U31G, for which the self-cleavage amounted to 0.781.

Turning to C9G U31C, the self-cleavage is 0.722.

Regarding C9A A32U, the self-cleavage was determined as 0.558.

Take C8U A34U: the self-cleavage is 0.308.

As for C8U A34G, the self-cleavage was found to be 0.582.

In the case of C8U A34C, the self-cleavage came out at 0.134.

Take C8U A40G: the self-cleavage turned out to be 0.172.

On to C9U G45C, for which the self-cleavage stood at 0.157.

On to C8G A35U, for which the self-cleavage worked out at 0.566.

In the case of C8G A35C, the self-cleavage stood at 0.478.

On to C8G A35G, for which the self-cleavage stood at 0.222.

As for C8G C15G, the self-cleavage was found to be 0.062.

Regarding C9U G29A, the self-cleavage came to 0.635.

Turning to C9G U37C, the self-cleavage came out at 0.156.

On to C9G U37A, for which the self-cleavage worked out at 0.208.

As to C9U A32U, the self-cleavage is 0.585.

For C9U A32C, the self-cleavage was found to be 0.64.

For C9U G28U, the self-cleavage amounted to 0.504.

In the case of C9U G28A, the self-cleavage is 0.562.

As to C8A G39U, the self-cleavage is 0.123.

With C8A G48C, the self-cleavage turned out to be 0.346.

As to C8A G48U, the self-cleavage is 0.257.

Turning to C8A G48A, the self-cleavage was 0.215.

Take C8U G39U: the self-cleavage was 0.136.

Regarding C8U G39A, the self-cleavage came to 0.161.

Turning to C8G G48A, the self-cleavage was 0.227.

In the case of C9A U12G, the self-cleavage amounted to 0.417.

With C9A U12A, the self-cleavage came to 0.916.

On to C9G C19A, for which the self-cleavage is 0.0927.

On to C9G C19G, for which the self-cleavage was 0.073.

Consider C9G C19U, for which the self-cleavage was determined as 0.144.

Take C8U C26A: the self-cleavage was determined as 0.117.

As for C9U A30U, the self-cleavage was 0.579.

In the case of C8G C25U, the self-cleavage was found to be 0.112.

C8G U12G: the self-cleavage turned out to be 0.676.

On to C8A G43C, for which the self-cleavage was 0.153.

Consider C8A C21A, for which the self-cleavage was 0.0745.

With C8A C21G, the self-cleavage was found to be 0.076.

As to C8G G44A, the self-cleavage turned out to be 0.513.

For the variant C8G G44U, the self-cleavage was 0.275.

On to C8A U12C, for which the self-cleavage was 0.504.

Turning to C8A U12G, the self-cleavage came out at 0.213.

Take C9A U37G: the self-cleavage came out at 0.33.

As for C9A U37A, the self-cleavage worked out at 0.233.

For the variant C8A U37A, the self-cleavage is 0.225.

As for C9A A40C, the self-cleavage was determined as 0.108.

Consider C9A A40U, for which the self-cleavage was determined as 0.119.

With C9U G38U, the self-cleavage is 0.395.

Turning to C9A C26A, the self-cleavage is 0.11.

For C9A C26G, the self-cleavage came to 0.0708.

C8A G42U: the self-cleavage worked out at 0.168.

Turning to C8A G42C, the self-cleavage was found to be 0.285.

For C8A G42A, the self-cleavage was 0.141.

For the variant C8G G42U, the self-cleavage came out at 0.147.

As to C9A G24C, the self-cleavage is 0.119.

In the case of C9A U31C, the self-cleavage is 0.765.

With C9A U31G, the self-cleavage came out at 0.777.

Take C8U C20A: the self-cleavage came to 0.0588.

As for C8G G39U, the self-cleavage is 0.129.

Turning to C8A C26A, the self-cleavage was determined as 0.106.

With C8A C26G, the self-cleavage stood at 0.0829.

Take C9A A34C: the self-cleavage turned out to be 0.18.

On to C8A A40U, for which the self-cleavage came to 0.2.

Regarding C8U C19U, the self-cleavage is 0.35.

As to C8A G28A, the self-cleavage was found to be 0.281.

Take C8G A30G: the self-cleavage is 0.643.

Consider C8G A30C, for which the self-cleavage is 0.122.

As for C8G A30U, the self-cleavage stood at 0.409.

In the case of C9A U18G, the self-cleavage stood at 0.159.

As for C9U A34C, the self-cleavage was determined as 0.131.

On to C9U G16U, for which the self-cleavage stood at 0.373.

In the case of C9U G16A, the self-cleavage was 0.405.

As for C8A C46U, the self-cleavage was determined as 0.46.

Turning to C8G G45U, the self-cleavage came to 0.183.

In the case of C8G G45A, the self-cleavage came to 0.207.

As for C8G G45C, the self-cleavage was found to be 0.118.

In the case of C8U G24U, the self-cleavage is 0.177.

In the case of C8U G42U, the self-cleavage was found to be 0.133.

On to C8U G42A, for which the self-cleavage was 0.127.

For the variant C9U C19U, the self-cleavage worked out at 0.226.

Turning to C9U C19A, the self-cleavage is 0.0695.

As for C8A C19G, the self-cleavage was determined as 0.0926.

For C8G A33U, the self-cleavage worked out at 0.279.

Turning to C8G A33G, the self-cleavage was determined as 0.232.

With C9U A40G, the self-cleavage worked out at 0.14.

C9U A40U: the self-cleavage was determined as 0.162.

On to C9U A40C, for which the self-cleavage is 0.161.

Take C9G A35C: the self-cleavage amounted to 0.556.

As to C9A C21U, the self-cleavage was found to be 0.0545.

With C9A C21G, the self-cleavage came to 0.164.

Take C9A C21A: the self-cleavage was found to be 0.0865.

Regarding C9G G36A, the self-cleavage was determined as 0.204.

As for C8G U18A, the self-cleavage was determined as 0.0816.

Regarding C9A C20A, the self-cleavage amounted to 0.0653.

In the case of C9A C20U, the self-cleavage was found to be 0.15.

Regarding C8A G16A, the self-cleavage amounted to 0.153.

On to C8A G16C, for which the self-cleavage amounted to 0.0923.

Consider C8A C9A, for which the self-cleavage worked out at 0.0842.

As for C8A C9G, the self-cleavage came out at 0.122.

Take C8A C9U: the self-cleavage turned out to be 0.0937.

As for C8U U12G, the self-cleavage was determined as 0.429.

Consider C9G A30G, for which the self-cleavage stood at 0.791.

C8A U18G: the self-cleavage came to 0.0805.

On to C8A U18A, for which the self-cleavage was determined as 0.111.

Regarding C8U C25U, the self-cleavage came to 0.195.

C8U C25G: the self-cleavage stood at 0.1.

For the variant C8U C25A, the self-cleavage turned out to be 0.0853.

As for C8U G48U, the self-cleavage worked out at 0.678.

Regarding C9A C15G, the self-cleavage came out at 0.0772.

For the variant C8A C15A, the self-cleavage amounted to 0.134.

On to C9U A10C, for which the self-cleavage turned out to be 0.948.

Take C9U A10U: the self-cleavage was found to be 0.399.

Take C9G G24A: the self-cleavage was found to be 0.0902.

On to C9A C14G, for which the self-cleavage came out at 0.0661.

Take A10C A11C: the self-cleavage was found to be 0.907.

On to A10C A11G, for which the self-cleavage is 1.12.

On to A10C A11U, for which the self-cleavage came to 0.883.

As to C9U G44A, the self-cleavage came out at 0.72.

As for C9U G44U, the self-cleavage came out at 0.595.

As for C9U G44C, the self-cleavage was 0.677.

C9G G42U: the self-cleavage came to 0.119.

With C9U C26G, the self-cleavage was found to be 0.0629.

In the case of C9U C26A, the self-cleavage stood at 0.0658.

Consider C9U C26U, for which the self-cleavage came to 0.086.

Take C8U U18C: the self-cleavage was 0.0906.

In the case of C8U U18G, the self-cleavage amounted to 0.0414.

In the case of C9G G29A, the self-cleavage was determined as 0.596.

In the case of C9G G29U, the self-cleavage came out at 0.447.

In the case of C9G G29C, the self-cleavage came out at 0.396.

C8G U31G: the self-cleavage was found to be 0.464.

On to C9U A35U, for which the self-cleavage was 0.767.

As to C9A G43C, the self-cleavage came to 0.0978.

With C9A G38U, the self-cleavage amounted to 0.32.

Take C8U G43A: the self-cleavage is 0.145.

With C8U G43C, the self-cleavage was determined as 0.101.

With C9U U31C, the self-cleavage stood at 0.708.

Turning to C9U U31A, the self-cleavage is 0.667.

A10C A22G: the self-cleavage is 0.256.

With A10C A22U, the self-cleavage was 0.78.

C9U G39A: the self-cleavage came to 0.139.

With C8U G41A, the self-cleavage worked out at 0.112.

In the case of C9A G13U, the self-cleavage turned out to be 0.927.

Take C8G G41U: the self-cleavage came to 0.129.

Take C9U A23U: the self-cleavage came to 0.0746.

Turning to C9U A23G, the self-cleavage was 0.0717.

As for C8U A22G, the self-cleavage amounted to 0.1.

As to C8U A22U, the self-cleavage was 0.419.

As for A10C, the self-cleavage came to 1.01.

As for C8U G29A, the self-cleavage is 0.516.

Turning to C8U G29U, the self-cleavage turned out to be 0.577.

Take C9U G13A: the self-cleavage was determined as 1.03.

In the case of C9U G13C, the self-cleavage was 0.592.

In the case of C9U A11U, the self-cleavage is 0.84.

Take C9U A11G: the self-cleavage was determined as 0.597.
